The record followed here is the domain aggregation screens of Martell et al. (2025).

A short description of the data set: soluble fraction after stress (log2 fold change); higher = more stays soluble; pooled small domains, quantitative proteomics. Conditions: stress: 50 degC. The essentials:
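After stress at 50°C, the amount of each protein still soluble was measured. This was done on pooled custom libraries of small protein domains, using high-throughput quantitative proteomics. The figure given is a base-two log fold change and stands for aggregation propensity, with higher values meaning more protein stays in solution.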

“HMNLKDINLNVRHYKIIDFVREHGYASIETLTRQFGVSAQTVRRDIIYLDNQAVLKRHHGGVGTLPG”: the “soluble fraction (log2)” value was -1.99.

Take “HMHSQVFTDPDKAKNAVVKLGAPLVVKADGLALGKGVIIAQNPQAAKEAVASVGSSGISSISVT”: the “soluble fraction (log2)” value came to 0.0607.

For the sequence “HMPAAKARTWQEATHAFQRDFLLETLRRARFNAADAADQLGLARPALYTTAKRLGLDLVAERQRWEAEAH”, the “soluble fraction (log2)” value is -0.173.

As for “HMEDSAKRHQIMDGARRVFMDLGFDGASMNEIARAAGVSKGTLYVYFTDKNRLFEAIVEQESL”, the “soluble fraction (log2)” value is -1.37.

“HMNNESEGAIMLRQYSSLSAYLTKYNIDVNSKKAQQYASSLKLAQEKGSAEGQKYLSSISSELDD”: the “soluble fraction (log2)” value was -0.158.

For the sequence “HMDVTDRLARRLQGLRSAQGLSLDALAARSGVSRSNISLIERGQSSPTATVLDKLSAALGVTLAALFEEP”, the “soluble fraction (log2)” value is -0.474.

As for “HMKSFIWKQYTVQITKKNVKNTNVRIKRDNPHVILMSIPYSATYKAGLLALETPHIRHWLDNYERKLKQ”, the “soluble fraction (log2)” value is -1.48.

Consider “HMSLSASELDQLRMMTKVSHMYHTRGMVQIDIARSLGLSQARVSRLLSAAEDANIVRTVVVA”, for which the “soluble fraction (log2)” value is -0.306.

With “HMRTIPDALIGRPYESVETAIVLEGLQAKRTEVFHPTIRPGTVIRLEPTSGSELLRDGVVEIFVSQGPETT”, the “soluble fraction (log2)” value is -0.159.

“HMTLVSALDQKTKDSAYYRGTYLAGKISAGKMTKQEAVADIMKNYDGNTAAMKVAAEKAGVSDLLSQTVL”: the “soluble fraction (log2)” value is 0.234.

For the sequence “HMNPASVLDGLKITSFSPTRAIVAGPGGSRIVFDNEAVVLGGIEWDVHIQRNGIEFTSQGQTVLLLFDRS”, the “soluble fraction (log2)” value is -1.21.

As to “HMNLFKAPMPGLIRTIVVAEGQEVKKGDVILILEAMKMENALKSPADLVVKSIKVQQGQAVEKNQLLIEF”, the “soluble fraction (log2)” value was -0.0526.

Take “HMYSINKTEFGERIKSAREELKMTQTQLAQLLKTSQTTVAKYEHGEQIPRADVLATISKATGKSTDWLLFG”: the “soluble fraction (log2)” value is -0.017.

On to “HMSHDTLVYRLAQMLVKLNQGEKLDPQQLAEEFGVNLRTIQRDLNVRFAYLQLEKTDGRYHLDPTFL”, for which the “soluble fraction (log2)” value is -0.999.

With “HMARRKRDIDSDINVKVFEHWLDNLDSASRESFSAFAEETFSPIQVYLYAKFLGYESSIIAVDHWVAVAYP”, the “soluble fraction (log2)” value came out at 0.104.

For “HMDNPYEVFIPNSYIGQRLDQTLASLFPQFSRSRLQNWLASGNLLVNGKIVKPKTKILGGEQINILDPYN”, the “soluble fraction (log2)” value is -0.339.

Turning to “HMVDFVNVVVPVKANYGGEAVVEFLDERLSEFGTEGIYRIELQGETMENPSPDYSQLKAKYHISEIVDRT”, the “soluble fraction (log2)” value is 0.08.

For “HMVPTYEAYVGKEGLVVGTLRPAGTAEFDGERLDVVSEGEYLEAGTRVQIVRTEGRRIVVRKIN”, the “soluble fraction (log2)” value was 0.0504.

For “HMNLYERFPIHELWKETFNETLDEEEHITFITSEFKPENIVLGQGFIAAPSKKDAVDWLKVIRTVLIFYDS”, the “soluble fraction (log2)” value is -0.941.

Turning to “HMDKNLQYADTPKGKLREYIKNLPNGSTVNRQKLAEEFGIKKQSMGTVTEVFQEFPDKNFKFVNP”, the “soluble fraction (log2)” value came out at 0.119.

As for “HMTAPDDFIRAEVTASGKNGMAVAELSKRVRTRFKSFKVRELGYPHLAGYLADVEGVRVYKQGRENWVAK”, the “soluble fraction (log2)” value is -0.905.

For the sequence “HMGLLVPELTAEENVSLAAMIAGVPRQQARSISADLLNRLGLGQMLDRRMGEMSGGQAQRVAIAPIYGKF”, the “soluble fraction (log2)” value was -0.274.

For the sequence “HMGMVDKSMYSRYDVGDLVKVLRGPLEGSEGHITEINTDTGTVKVETVFFGRSTVVEVDFSEIDK”, the “soluble fraction (log2)” value was -0.281.

Take “HMDKATMRWEQIEKFLETHPYIMNADVRALFNVSAATANRILATLTTEGKLVKYREGGHWAYKY”: the “soluble fraction (log2)” value was -0.544.

Turning to “HMGSLGSLLKSVRNQRGLSRQQMAQSLNIGVRAIEQIEEGERKPDLELLNRYARGLMDPSVT”, the “soluble fraction (log2)” value was -0.0584.

Turning to “HMDPGPVLISAQVLDDLEAIRRDGSSNMLDWPAVARLAEVMGMDRTAAWVRTHHREYSAGIFRGFASD”, the “soluble fraction (log2)” value is -1.68.

In the case of “HMKAPDSQYKPLTDFQTDASFQKLDAYLRNRYPAMLANAVVYDVLRTPDAISYRVNYQVDNKMITINAAVT”, the “soluble fraction (log2)” value is -0.126.

In the case of “HMWSNTAVIDRIRQLHEEGQPISSQSVQVNHKSLYMAAIKRFRGWKRAVEAAGIDYRQIRLR”, the “soluble fraction (log2)” value was -1.92.

As to “HMAAFGDLLSELRRDMNMTQDELAKVLFVSPGTISNYENNIHFPDVPKLKQIAQYFGVTTDYLLG”, the “soluble fraction (log2)” value is -0.405.

Take “HMHANAALTPRQRLRLAQKIVDEEWTVAAAADYFRVSWPTAAKWARRYVELGEAGMADRSSRP”: the “soluble fraction (log2)” value was -2.1.

In the case of “HMSDGHLIKVLEVLDGGEAFLGRTANGGTARFSLGQLADIRRGSVVFVSEDRWEVVPDSAWPEI”, the “soluble fraction (log2)” value is -0.528.

“HMDGQPLSERQQEILRWVAEGLSNREIGERLNITPNTVRDHLSEVMRRLEVSNRTSAVSTAFHLGLLP”: the “soluble fraction (log2)” value is -0.115.

“HMGALSLDMLFDRFDALQEQSMGDKTEGGQELRGMIRTFIEQEKLDIRVTRTTTNAALLEMIEKEMQG”: the “soluble fraction (log2)” value was -0.451.

For “HMAERVWASLLEIKNAVAIEDAKTLEDVDNSEKIAEERIAALNDDAKHPLAIAFIGKLRQDIAEKKIELA”, the “soluble fraction (log2)” value was 0.379.

Take “HMKGQNRSEITAGARVKVVQKQDQRTGALTEGIVRDILTRSPHHPHGIKVRLESGIVGRVKDVL”: the “soluble fraction (log2)” value worked out at 0.0363.

In the case of “HMGEPTLTIRVVSYNPQSGEMVVVARDPLSGRYALATLNVRTGAGQMIGPQGELLPIENFALGS”, the “soluble fraction (log2)” value is -0.985.

Turning to “HMEEITLIAEDEGLRLDTWLTDKLKDYSRSYIQKLMEDELVLVNGKARKANYRIKTGDEIHVSIPEPE”, the “soluble fraction (log2)” value is -0.0342.

With “HMHDEKHHQLANEIARKWAALRGNRDFAAADELKNLAAEAGVELQATKQAVGQGALAKLKENFDPVKLEAL”, the “soluble fraction (log2)” value is 0.188.

On to “HMYESAMSDLHARIMSSDDPHGEIYKMLTQSGPEAKYIQDMYNETSIDRGLHPDDDFEDIIDAMVAELDD”, for which the “soluble fraction (log2)” value was -0.479.

With “HMEKDRDKRIRKRVLTALKRNDKKMTDKAFALLTSRIRDESILDQEVLKLIGYVGDRTTIDSKDINIVVAE”, the “soluble fraction (log2)” value was 0.0525.

Take “HMAMTNEEREALISEIKQTVNNSIDLKKDISDTEIKEAITQAVFERSEKSYLSIAEKQDIITAVFNSMR”: the “soluble fraction (log2)” value was 0.0202.

Take “HMQSHGSRIWTDITGNFTREASFIELAEGKVTLQLTDGRRTIISFEILSKKDQEYVLDIGDS”: the “soluble fraction (log2)” value was -2.11.

For the sequence “HMLVATFGPTTGWEGREIIWDVDRFILVGHGAVPAAGVLDYDRRGQLIWAQPELRAWVVEVDRWETG”, the “soluble fraction (log2)” value is -1.97.

Turning to “HMIEINNLEDLKLMKEFILKNGKYGFGVFVGGKYIGLSDIGSVNSFKDTLGLPVVSLGNDDFKRFTEAH”, the “soluble fraction (log2)” value is -0.658.

On to “HMNIDEIIGKKAVVIESIDNLQGTGKVRYQGMEWTARAEEENDRIEKDAEVEIIAVKGVKLIVKMK”, for which the “soluble fraction (log2)” value is -0.13.

“HMADEIQIGLQKAIQSLPEKQKLVFSMRYYDEIPYDEMSKILDMSVGTLKTNYHYAKQKIEDFLQNH”: the “soluble fraction (log2)” value is -1.05.

With “HMSNLTDLVSAKEAEVYLHFLESGSTAGMTEAELRAVRKIEELIQSNKIDYNGILRIRNETVK”, the “soluble fraction (log2)” value was found to be 0.139.

Regarding “HMNDAEEKAEAIEGVKNFMANMEKTDIDFKSKESVLLEQVEEIRKNYPVAQWPVIVKQLYNNIGRL”, the “soluble fraction (log2)” value was found to be 0.159.

Turning to “HMSGKWKIRILWYIAEYEVQRFGELRRRLGDITQSTLTEQLRELEQDGFVSRYVYQEVPSKVEYSLTE”, the “soluble fraction (log2)” value was 0.143.

Take “HMYLYADIYKKLEEKIKNMEVGEKLPSERAMVQEYGVSRNVLREALVLLSERGLIEIRPGKGSYVTNQQ”: the “soluble fraction (log2)” value is -0.436.

Turning to “HMTAQASDIEKVLQVIETLGFRGHTLPGENRTAIGVTGNRGSIDPAHFENLPGVADAIRVTKPY”, the “soluble fraction (log2)” value was determined as 0.0639.

As to “HMSVLDEVRKLSFHQRNAVFLFYFEGYSMKEIAQIFHVKEGTVSSWLTRARKQLRKQMEEEVLYDESLP”, the “soluble fraction (log2)” value was -0.526.

As to “HMLWTDTKYVTVPDFVGKEPKEIESSYLYNIEYHGEGTKVISQQPAAFSRTIEGGTVRLYLG”, the “soluble fraction (log2)” value is 0.0884.

In the case of “HMKLARGEFEIMAKFIKEISGISLEQNKTYLIESRLSDLAESEGVKTFSDFFFKAKFNKILKEKIIDAI”, the “soluble fraction (log2)” value is -0.946.

For the sequence “HMDGRSLSHATLEEIRIRAVQRVEAGESPEVVVKALGFSRPRIYEWLALYREGGLEALRAKPV”, the “soluble fraction (log2)” value is -0.505.

Turning to “HMAPLRTQYVNVNYANAAEIKTLISGADKEVGSLLSERGSVVVDKRTNTLIIQDTQARLNDIGDLIEQLD”, the “soluble fraction (log2)” value is -0.0505.

Turning to “HMKERLLDPYKDFIVNYLQKYPYTPAAVMHDKLKESYPDFPKVDPKTIYNFVMLLRRDFNIPKV”, the “soluble fraction (log2)” value was -0.306.

Take “HMNDRLFQILYLLLEKGTMTAPELSRALEVSVRTIYRDIDALSLAGVPVYATQGKNGGVSLLPNY”: the “soluble fraction (log2)” value was -1.24.

Regarding “HMENWMPNLVNQDKRLAINTLRELGFTEEAGNLVIREETSEDVTKDYVISTDPVAETDLADVEKVTLVVSS”, the “soluble fraction (log2)” value is 0.0767.

Consider “HMNRIGERIKRKRELRNLNLGELAEKVGISASALSQIEKSKSFPSVITLKSIAEQLRTTVGELIGEN”, for which the “soluble fraction (log2)” value turned out to be 0.0607.

For “HMIDFDEQGNLWVHEMGPRHGDELNLIEKARNYGYPTVSQGDHYSGVKISNHEDIPIFKSPEKAWVPAISP”, the “soluble fraction (log2)” value was -0.0541.

As to “HMKPRVTVVTLGVDDLERAVRFYAEGLGFPTEGIVGREFEFGAVAFFDMQPGLRLALWPRRSLAHDSGLP”, the “soluble fraction (log2)” value is -0.306.

Turning to “HMAVDVNKATAAELDSIKGIGPAISAKILEEKKKGGNFKDWNDLVTRVSGVGEANAAKFSSEGLTVGGAS”, the “soluble fraction (log2)” value worked out at 0.0629.

Turning to “HMYRPQQEFTMRDLFQNNLNGSESASVRRDALGAELGIGYGNAKRFLERLNHYGVSREEFTAALEKLESE”, the “soluble fraction (log2)” value was -0.224.

With “HMTYNIPEHYQTIDVKEYVRKLVSDGDSDQIGRVEMELTEFETRNLFPVLKVLIYIIDTMRK”, the “soluble fraction (log2)” value was -2.45.

“HMAESSPYTVRPGDTLWKILAQTQNARYNDFPYLYRKFRELNPNITDLNHIVSGQKIIVPHIPG”: the “soluble fraction (log2)” value was 0.0168.

On to “HMQEVILEKIQLTYLSADKLSKMAEQFSIPVKMYWVDENPMMLMVMGNESDIATFKKVLTQIDIPENKS”, for which the “soluble fraction (log2)” value came out at 0.0714.

For the sequence “HMAPLEPLTDRETEMLVRLANGASNKVMARESFVSENTIKFHLKNIYAKLGVTSRLQAIAAARNQGLI”, the “soluble fraction (log2)” value was -0.891.

Turning to “HMDFFVLVGAYKTPDEAETIRAKIAFSGLDSSVSHGNDGRYRVRIGPFHSEGDARKAQSTLRANDIPGQII”, the “soluble fraction (log2)” value was -0.0926.
